Results published in PMC4761994, “Unraveling and engineering the production of 23,24-bisnorcholenic steroids in sterol metabolism” (Scientific Reports, 2016).

Tests used:
[1] = biological target: T1, Hsd4AMN (Mycolicibacterium neoaurum, UniProt A0A0H3W613); assay: NADH oxidation at […] nm, Michaelis-Menten fit; type: biochemical; conditions: NADH 125 μM; 125 mM Tris-HCl pH 8.0; 30 °C
T1 construct: gene hsd4A

[2] = system: C[C@]12CC[C@H]3[C@@H](CCC4=CC(=O)C=C[C@@]43C)[C@@H]1CC[C@@H]2O; assay: purified protein; type: biochemical, Mycolicibacterium neoaurum; conditions: NAD+ 100 μM, 100 mM Tris-HCl pH 7.8, 30 °C, pH 7.8
[3] = system: C[C@]12CC[C@H]3[C@@H](CCC4=CC(=O)CC[C@@]43C)[C@@H]1CC[C@@H]2O; assay: purified protein; type: biochemical, Mycolicibacterium neoaurum; conditions: NAD+ 100 μM, 100 mM Tris-HCl pH 7.8, 30 °C, pH 7.8
[4] = system: CC(O)CC(=O)SCCNC(=O)CCNC(=O)[C@H](O)C(C)(C)COP(=O)(O)OP(=O)(O)OC[C@H]1O[C@@H](n2cnc3c(N)ncnc32)[C@H](O)[C@@H]1OP(=O)(O)O; assay: purified protein; type: biochemical, Mycolicibacterium neoaurum; conditions: NAD+ 125 μM, 125 mM glycine-NaOH pH 9.0, 30 °C, DL mixture of substrate, pH 9.0

Row | Molecule | Km [1] [µM] | Km [2] [µM] | Vmax [2] [µmol/min/mg] | Km [3] [µM] | Vmax [3] [µmol/min/mg] | Km [4] [µM] | Vmax [4] [µmol/min/mg]
1 | CC(=O)CC(=O)SCCNC(=O)CCNC(=O)[C@H](O)C(C)(C)COP(=O)(O)OP(=O)(O)OC[C@H]1O[C@@H](n2cnc3c(N)ncnc32)[C@H](O)[C@@H]1OP(=O)(O)O [acetoacetyl-CoA] | 101 ± 27 |  |  |  |  |  | 
2 | Hsd4AMN (Mycolicibacterium neoaurum ATCC 25795) |  | 19 ± 4 | 0.217 | 23 ± 7 | 0.169 | 124 ± 39 | 0.113
